The values that follow come from patent publication US12384811B2, “Sialidase-resistant saccharide and method of making and using the same” (Academia Sinica, priority 2019, dated 2025).

The target of one experiment is T1, FcγRIIIa (Homo sapiens, UniProt P08637).
T1 construct: made in house; host or cells: HEK-293
The experiment in a line: Surface plasmon resonance (SPR) analysis of binding avidity of glycoengineered Rituximab IgG1. The note with it: for improvement in binding avidity to FcγRIIIa compared to the commercial sample of rituximab / Rmax / Kd / ka / kd: SPR; for Rmax / Kd / ka / kd: BIACORE T200, 25° C.; for Kd / ka / kd: single cycle kinetic, 1:1 Langmuir model; for Fold: binding avidity relative to commercial Rituximab. As for the experimental part: All the SPR experiments were performed with the single cycle kinetic method by BIACORE T200 at 25° C. using HBS-EP (10 mM HEPES pH7.4, 0.15M NaCl, 3mMEDTA, 0.005% surfactant P20) as running buffer. FcγRIIIa was transfected into HEK-293 cells to express the complex-type glycosylated recombinant protein as analyte. For the analysis of Rituximabs binding to FcγRIIIa receptor, antihuman Fab antibodies in human Fab capture kit (GE Healthcare) were immobilized onto both the reference and active channels of CM5 sensor chip, and then Rituximabs were captured on the active channel for interacting with the serial dilutions of FcγRIIIa analyte (2.5, 5, 10, 20, 40 nM for 2,6-FluoSCT and 2,6-SCT; 8, 24, 72, 216, 648 nM for the commercial Rituximabs) at 30 μl/min for association of 240 seconds followed by dissociation time of 420 seconds. Rituximab data were processed with double referencing for background subtraction. Data of Rituximabs was fitted to 1:1 Langmuir binding model in BiaEvaluation software (GE Healthcare) to obtain the kinetic/affinity constants (Table 4). Analyzed antibodies were captured by the Human Fab capture kit and detected with the single cycle kinetic method.

The subject of experiment [1] is sialidase from Clostridium perfringens. The experiment is classed as biochemical. The conditions noted are these: C. perfringens sialidase, substrate Neu5Ac-α2,6-GalβpNP 0.6 mM, inhibitor 0-20 mM (FIG. 1B).
Experiment [2] addresses T2, sialidase from Vibrio cholerae (Vibrio cholerae serotype O1, UniProt P0C6E9).
T2 construct: purchased Sigma Aldrich 11080725001
In kind it is biochemical.

Experiment [3] has as its target T2, sialidase from Vibrio cholerae. The experiment is classed as biochemical. The note with it: pH 5.5.
For experiment [4], the system named is sialidase from Clostridium perfringens. The experiment is classed as biochemical. The note with it: C. perfringens sialidase, 37° C., pH 5.0, substrate 0-20 mM, β-galactosidase, A405 nm (FIG. 1A).

T2 sequence (P0C6E9 25-781): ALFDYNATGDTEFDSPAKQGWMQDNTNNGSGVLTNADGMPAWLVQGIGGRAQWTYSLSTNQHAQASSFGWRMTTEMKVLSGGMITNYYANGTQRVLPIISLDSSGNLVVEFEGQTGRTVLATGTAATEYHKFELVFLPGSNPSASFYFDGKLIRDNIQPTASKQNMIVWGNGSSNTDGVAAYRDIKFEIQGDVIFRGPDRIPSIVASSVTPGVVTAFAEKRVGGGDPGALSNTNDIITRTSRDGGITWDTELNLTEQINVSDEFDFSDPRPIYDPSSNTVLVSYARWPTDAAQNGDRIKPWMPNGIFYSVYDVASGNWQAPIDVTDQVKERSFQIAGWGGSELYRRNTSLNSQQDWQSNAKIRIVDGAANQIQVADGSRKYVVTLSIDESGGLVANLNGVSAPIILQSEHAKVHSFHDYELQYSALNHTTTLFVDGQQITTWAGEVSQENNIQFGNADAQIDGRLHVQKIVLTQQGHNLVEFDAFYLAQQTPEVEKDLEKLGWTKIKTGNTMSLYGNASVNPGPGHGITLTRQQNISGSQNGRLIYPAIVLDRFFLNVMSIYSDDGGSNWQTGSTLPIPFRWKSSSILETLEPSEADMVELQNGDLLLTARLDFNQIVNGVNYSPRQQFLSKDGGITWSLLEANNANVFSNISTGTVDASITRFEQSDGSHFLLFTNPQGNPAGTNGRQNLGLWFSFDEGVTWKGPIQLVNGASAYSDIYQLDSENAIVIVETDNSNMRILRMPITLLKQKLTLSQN
T1 sequence (P08637 17-254): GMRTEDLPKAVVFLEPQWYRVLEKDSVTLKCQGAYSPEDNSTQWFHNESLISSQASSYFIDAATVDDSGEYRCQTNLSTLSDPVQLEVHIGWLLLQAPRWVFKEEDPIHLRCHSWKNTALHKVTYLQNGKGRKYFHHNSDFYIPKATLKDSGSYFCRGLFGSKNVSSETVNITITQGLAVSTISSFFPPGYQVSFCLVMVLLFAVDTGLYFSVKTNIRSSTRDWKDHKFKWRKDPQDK

For “2,6-F^axSCT: homogeneous rituximab IgG1 glycoform without core fucose bearing the 3F^ax-Neu5Ac-terminated α2,6-sialylated biantennary N-glycan”, in the experiment with FcγRIIIa, the “improvement in binding avidity to FcγRIIIa compared to the commercial sample of rituximab” value is recorded as 37.4 fold, the Rmax is 71.28 RU, the Kd was 8.18 nM and the ka came to 244000 M⁻¹ s⁻¹. In the experiment with FcγRIIIa, the kd turned out to be 0.001996 s⁻¹ and the Fold is 37.4-fold.

For “2,6-SCT: parent nonfluorinated homogeneous rituximab glycoform (G2S2), α2,6-sialylated biantennary N-glycan without core fucose”, in the experiment with FcγRIIIa, the “improvement in binding avidity to FcγRIIIa compared to the commercial sample of rituximab” value came out at 39.9 fold, the Rmax is given as 60.64 RU, the Kd stood at 7.67 nM and the ka turned out to be 268000 M⁻¹ s⁻¹. Moreover, in the experiment with FcγRIIIa, the kd is 0.002059 s⁻¹ and the Fold is 39.9-fold.

Take `CC(=O)N[C@H]1[C@H]([C@H](O)[C@H](O)CO)OC(C(=O)O)=C[C@@H]1O` [DANA, 2-deoxy-2,3-didehydro-N-acetylneuraminic acid]: the “inhibition of the hydrolysis of 1” value in experiment [1] and in experiment [2] was “inhibit the hydrolysis of 1” in each case.

In the case of `CC(=O)N[C@H]1[C@H]([C@H](O)[C@H](O)CO)OC(OC[C@H]2O[C@@H](Oc3ccc([N+](=O)[O-])cc3)[C@H](O)[C@@H](O)[C@H]2O)(C(=O)O)C[C@@H]1O` (stereo partly drawn) [Compound 1, p-Nitrophenyl [5-acetamido-5-deoxy-D-glycero-α-D-galacto-non-2-ulopyranosylonate]-(2→6)-β-D-galactopyranoside], in experiment [3], the “hydrolytic activity of the sialidase toward the substrate” value is “expected hydrolytic activity”.

On to “Rituximab: commercial sample of rituximab (Rituxan, Roche; major glycoforms: G1F1, G0F1, G2F1)”, for which, in the experiment with FcγRIIIa, the Rmax is on record as 32.33 RU, the Kd worked out at 306 nM, the ka stood at 231000 M⁻¹ s⁻¹ and the kd was determined as 0.07054 s⁻¹. Besides, in the experiment with FcγRIIIa, the Fold is reported as 1-fold.

Take “p-Nitrophenyl [methyl 5-acetamido-3,5-dideoxy-3-fluoro-D-erythro-α-L-manno-non-2-ulopyranosonate]-(2→6)-β-D-galactopyranoside [Compound 2]”: the “inhibition of the hydrolysis of 1” value in experiment [1] and in experiment [2] was “did not significantly inhibit” in each case. Besides, the “hydrolytic activity of the sialidase toward the substrate” value in experiment [4] and in experiment [3] was “inactive” throughout.
